Experimental data: paper PMC12720779

What was measured:
[1] = target: T2Q A34F variant of GB1; assay: NMR titration; 19F NMR of 3-fluorotyrosine-labelled A34F, serial dilution 500 to 15.6 uM; dimer to monomers; 20 mM phosphate pH 7.0, 10% D2O, 298 K; with ficoll (70 kDa) as crowder
[2] = target: T2Q A34F variant of GB1; assay: NMR titration; 19F NMR of 3-fluorotyrosine-labelled A34F, serial dilution 500 to 15.6 uM; dimer to monomers; 20 mM phosphate pH 7.0, 10% D2O, 298 K; with 100 g/L heparin (15 kDa) as crowder
[3] = target: T2Q A34F variant of GB1; assay: NMR titration; 19F NMR of 3-fluorotyrosine-labelled A34F, serial dilution 500 to 15.6 uM; dimer to monomers; 20 mM phosphate pH 7.0, 10% D2O, 298 K; with hyaluronic acid (50 kDa) as crowder
[4] = target: T2Q A34F variant of GB1; assay: NMR titration; 19F NMR of 3-fluorotyrosine-labelled A34F, serial dilution 500 to 15.6 uM; dimer to monomers; 20 mM phosphate pH 7.0, 10% D2O, 298 K; with 100 g/L mucin (porcine stomach) as crowder
[5] = target: T2Q A34F variant of GB1; assay: NMR titration; 19F NMR of 3-fluorotyrosine-labelled A34F, serial dilution 500 to 15.6 uM, Y33 monomer and dimer peak integrals; dimer to monomers; 20 mM phosphate pH 7.0, 10% D2O, 298 K; buffer alone

T2Q A34F variant of GB1 (domain or fragment)
Kd [1]: 42 µM | Kd [2]: 12 µM | Kd [3]: 8 µM | Kd [4]: 26 µM | Kd [5]: 57 µM | stoichiometry N [5]: 2
